Assay results from patent publication US20170173105A1, “AUTOASSEMBLING PEPTIDES FOR THE TREATMENT OF PULMONARY LEAKAGE” (3-D MATRIX, LTD., priority 2014, published 2017).

Tests used:
Format in all cases: physicochemical
[1] = Gelation of peptide solutions on saline buffer treatment (time sweep); details: saline buffer (0.15 M of NaCl); IEIK13 1.5%, KLD12 1.5%, PuraMatrix 2.5%
Description: The effect of salt ionic strength level surrounding peptide solution on the properties of peptide solutions was evaluated to identify the possibility of peptide gelation when the peptide solution is placed into the environment where salt ionic strength level is high. […] Without pH effect, the effect of saline treatment on gelation of peptide solutions were evaluated. […] This is because IEIK13 is much more sensitive to salt ionic strength levels. Fast gelation of IEIK13 at the salt ionic strength level similar to body fluid isotonic salt level may generally improve its function and gelation speed for various clinical applications. The results are shown in FIG. 19 for IEIK13, KLD12 and PuraMatrix® solutions. Time sweep tests were performed at 1 rad/sec and at 1 Pa with 20 mm plates and 500 μm gap distance. […]

[2] = pH and appearance of 2.5% peptide solutions after adding 0.1 N NaOH
Description: To adjust the pH level of the peptide solutions by way of example, 0.1 N NaOH was added to 2 mL of 2.5% peptide solutions and their pH and appearance were measured.

[3] = Appearance of 1.5% peptide solutions with various salts at room temperature; details: for Appearance: KLD12 solution, room temperature
Description: The effect of salt ionic strength level on the properties of peptide solutions was evaluated to identify optimized salt ionic strength levels for the peptides as described herein. Increasing the salt ionic strength level of PuraMatrix® and other peptides may generally improve its function and mechanical strength for various clinical applications. To adjust the salt ionic strength of the peptide solutions by way of example, various salt buffer solutions including NaCl, KCl, MgCl2, CaCl2 and DPBS (10×) were added to 2 mL of 1.5% peptide solutions.

[4] = 0.1 N NaOH 0 μL/mL added in 2.5% solution, conc. 2.5%
[5] = 0.1 N NaOH 50 μL/mL added in 2.5% solution, conc. 2.38%
[6] = 0.1 N NaOH 100 μL/mL added in 2.5% solution, conc. 2.27%
[7] = 0.1 N NaOH 300 μL/mL added in 2.5% solution, conc. 1.92%
[8] = pH increase up to approximately 3.5 or less with 0.1 N NaOH, 2.5% solutions

Lys-Leu-Asp-Leu-Lys-Leu-Asp-Leu-Lys-Leu-Asp-Leu (Ac-KLDLKLDLKLDL-NH2) [KLD12]
gelation after saline buffer treatment [1]: no or negligible gelation
Appearance [2, 4]: Clear, thick gel
Peptide solution pH [2, 4]: 2.1
Appearance [2, 5]: Clear, thick gel
Peptide solution pH [2, 5]: 2.4
Appearance [2, 6]: Clear, thick gel
Peptide solution pH [2, 6]: 2.6
Peptide solution pH ([2]; 0.1 N NaOH 150 μL/mL added in 2.5% solution, conc. 2.17%): 2.9
Peptide solution pH ([2]; 0.1 N NaOH 200 μL/mL added in 2.5% solution, conc. 2.08%): 3.3
Peptide solution pH ([2]; 0.1 N NaOH 225 μL/mL added in 2.5% solution, conc. 2.04%): 3.6
Peptide solution pH ([2]; 0.1 N NaOH 250 μL/mL added in 2.5% solution, conc. 2.0%): 4.0
Appearance [2, 7]: Cloudy, brittle gel
Peptide solution pH [2, 7]: 4.7
Peptide solution pH ([2]; 0.1 N NaOH 350 μL/mL added in 2.5% solution, conc. 1.85%): 5.2
Peptide solution pH ([2]; last line per peptide, NaOH volume and conc. not given): 7.0
apparent stiffness on pH increase [2, 8]: increased
color of solution on pH increase [2, 8]: did not change the clear color
Appearance ([3]; CaCl2 0 M, ionic strength 0 M, conc. 1.5%): Clear, thick gel
Appearance ([3]; CaCl2 0.05 M, ionic strength 0.15 M, conc. 1.48%): Clear, thick, stiffer gel
Appearance ([3]; CaCl2 0.067 M, ionic strength 0.2 M, conc. 1.47%): Clear, thick, stiffer gel
Appearance ([3]; CaCl2 0.083 M, ionic strength 0.25 M, conc. 1.46%): Clear, thick, stiffer gel
Appearance ([3]; CaCl2 0.1 M, ionic strength 0.3 M, conc. 1.45%): Clear, thick, stiffer gel
Appearance ([3]; CaCl2 0.117 M, ionic strength 0.35 M, conc. 1.44%): Clear, thick, stiffer gel
Appearance ([3]; CaCl2 0.133 M, ionic strength 0.4 M, conc. 1.43%): Slightly cloudy, thick, stiffer gel
Appearance ([3]; CaCl2 0.15 M, ionic strength 0.45 M, conc. 1.43%): Slightly cloudy, brittle gel
Appearance ([3]; CaCl2 0.167 M, ionic strength 0.5 M, conc. 1.42%): Cloudy, phase-separated
Appearance ([3]; KCl 0 M, ionic strength 0 M, conc. 1.5%): Clear, thick gel
Appearance ([3]; KCl 0.05 M, ionic strength 0.5 M, conc. 1.48%): Clear, thick, stiffer gel
Appearance ([3]; KCl 0.1 M, ionic strength 0.1 M, conc. 1.45%): Clear, thick, stiffer gel
Appearance ([3]; KCl 0.15 M, ionic strength 0.15 M, conc. 1.43%): Clear, thick, stiffer gel
Appearance ([3]; KCl 0.2 M, ionic strength 0.2 M, conc. 1.4%): Clear, thick, stiffer gel
Appearance ([3]; KCl 0.25 M, ionic strength 0.25 M, conc. 1.38%): Clear, thick, stiffer gel
Appearance ([3]; KCl 0.3 M, ionic strength 0.3 M, conc. 1.35%): Slightly cloudy, thick, stiffer gel
Appearance ([3]; KCl 0.35 M, ionic strength 0.35 M, conc. 1.32%): Slightly cloudy, brittle gel
Appearance ([3]; KCl 0.4 M, ionic strength 0.4 M, conc. 1.3%): Cloudy, phase-separated
Appearance ([3]; MgCl2 0 M, ionic strength 0 M, conc. 1.5%): Clear, thick gel
Appearance ([3]; MgCl2 0.05 M, ionic strength 0.15 M, conc. 1.48%): Clear, thick, stiffer gel
Appearance ([3]; MgCl2 0.067 M, ionic strength 0.2 M, conc. 1.47%): Clear, thick, stiffer gel
Appearance ([3]; MgCl2 0.083 M, ionic strength 0.25 M, conc. 1.46%): Clear, thick, stiffer gel
Appearance ([3]; MgCl2 0.1 M, ionic strength 0.3 M, conc. 1.45%): Clear, thick, stiffer gel
Appearance ([3]; MgCl2 0.117 M, ionic strength 0.35 M, conc. 1.44%): Clear, thick, stiffer gel
Appearance ([3]; MgCl2 0.133 M, ionic strength 0.4 M, conc. 1.43%): Slightly cloudy, thick, stiffer gel
Appearance ([3]; MgCl2 0.15 M, ionic strength 0.45 M, conc. 1.43%): Slightly cloudy, brittle gel
Appearance ([3]; MgCl2 0.167 M, ionic strength 0.5 M, conc. 1.42%): Cloudy, phase-separated
Appearance ([3]; NaCl 0 M, ionic strength 0 M, conc. 1.5%): Clear, thick gel
Appearance ([3]; NaCl 0.05 M, ionic strength 0.5 M, conc. 1.48%): Clear, thick, stiffer gel
Appearance ([3]; NaCl 0.1 M, ionic strength 0.1 M, conc. 1.45%): Clear, thick, stiffer gel
Appearance ([3]; NaCl 0.15 M, ionic strength 0.15 M, conc. 1.43%): Clear, thick, stiffer gel
Appearance ([3]; NaCl 0.2 M, ionic strength 0.2 M, conc. 1.4%): Clear, thick, stiffer gel
Appearance ([3]; NaCl 0.25 M, ionic strength 0.25 M, conc. 1.38%): Clear, thick, stiffer gel
Appearance ([3]; NaCl 0.3 M, ionic strength 0.3 M, conc. 1.35%): Slightly cloudy, thick, stiffer gel
Appearance ([3]; NaCl 0.35 M, ionic strength 0.35 M, conc. 1.32%): Slightly cloudy, brittle gel
Appearance ([3]; NaCl 0.4 M, ionic strength 0.4 M, conc. 1.3%): Cloudy, phase-separated
apparent stiffness on salt ionic strength increase ([3]; up to the ionic strength at which solutions stay clear): increased
